In patent publication US20090297501A1:

Target: monkey Mpl (monkey)

- EC50 (read off the curve) (growth of BaF3-monkey Mpl cells, WST-8) [B]: 0.01 nM
Substance: hTPO (ligand)
